The target of assay [1] is streptavidin on 6.2 µm streptavidin-coated beads (UniProt P22629). The assay can be described thus: centrifugation assay with spectrofluorimetry and flow cytometry; biotinylated peptide on streptavidin-coated beads (binding through biotin). Background: A flow cytometer gives signals particle by particle.
For assay [2], the target named is Texas-Red labeled M1 anti-FLAG monoclonal antibody (IgG). Briefly: competition: TR-M1 pre-equilibrated with thousand-fold excess soluble non-fluorescent FLAG peptide, then passed over bead-borne fluorescein FLAG peptide; FRET.
Assay [3] deals with fluorescein biotin-bearing beads (Streptomyces avidinii, UniProt P22629). Briefly: Detection of native biotin via fluorescence unquenching of fluorescein biotin in affinity micro-column. Format: binding. As to conditions: 2 μL aliquot of 3 mM native biotin. The source says: Streptavidin coated beads bearing ≈1×10^6 fluorophores/bead were packed into the micro-channel.
Chain of fluorescein biotin-bearing beads (P22629 25-183): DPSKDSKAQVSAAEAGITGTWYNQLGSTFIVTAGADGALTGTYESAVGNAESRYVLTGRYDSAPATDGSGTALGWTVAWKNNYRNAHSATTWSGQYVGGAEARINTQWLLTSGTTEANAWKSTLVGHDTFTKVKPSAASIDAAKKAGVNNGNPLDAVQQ
(§1) Ostrich quenching is dependent on the length and structure of the ligand. […] Addition of native biotin recovers the original intensity under diffusion-limited kinetics. The extent of quenching and recovery on beads depends on site occupancy of the fluorescein biotin. […] The five-fold increase in intensity was consistent with a result from a flow cytometry measurement (data not shown). […] The magnitude of n2 relative to n1 is likely due to the disruption of the packing of beads upon initial contact with the plug of sample. It is likely that such disruption can be minimized through optimization of bead packing and sample injection procedures.

In assay [4] the target is non-biotinylated fluorescent 5-FLAG peptide (soluble). Briefly: centrifugation assay, spectrofluorimetry of residual supernatants; soluble fluorescent FLAG peptide on M2-bearing beads.
For assay [5], the target named is biotinylated and fluorescein-tagged 5-FLAG peptide on streptavidin-coated beads. The assay can be described thus: FRET quenching on 5-FLAG bearing beads, flow cytometry, buffer with Ca2+, sigmoidal analysis.
Assay [6] has the same target. The assay can be described thus: FRET quenching of 5-FLAG on beads by TR-M1 (FIG. 8).
Assay [7] shares this target. Briefly: flow cytometry of bead-borne FLAG peptides incubated with TR-M1 mAbs, FRET quenching (FIG. 18).
Assay [8] deals with non-biotinylated fluorescent 5-FLAG peptide (soluble). Briefly: FRET titration of TR-M1 into fluorescent FLAG peptide in solution, spectrofluorimetry, 1 mM Ca2+.
The target in assay [9] is biotinylated and fluorescein-tagged 5-FLAG peptide on streptavidin-coated beads. The assay can be described thus: affinity micro-column of fluorescein FLAG peptide beads, FRET endpoints, sigmoidal dose-response curve.
Assay [10] has the same target. Briefly: FRET quenching on 5-FLAG bearing beads, flow cytometry, calcium-free buffer, sigmoidal analysis.
The target is the same in assay [11]. The assay can be described thus: affinity micro-column of fluorescein FLAG peptide beads, real-time FRET, kinetic model fit.
In assay [12] the target is streptavidin coated beads (Streptomyces avidinii, UniProt P22629). Briefly: Binding of biotinylated ligands to streptavidin-coated beads (centrifugation assays). As to conditions: read-out: binding affinity (Kd) to streptavidin coated beads. As for the experimental part: Binding analysis of biotinylated biomolecules to streptavidin-bearing beads were performed. Centrifugation assays using paired spectrofluorimetric and flow cytometric analysis were carried out to compare and corroborate the flow cytometric data against the traditional spectroflurometric measurements.
Chain of streptavidin coated beads (P22629 25-183): as above
The flow cytometric analysis used a Becton-Dickinson FACScan flow cytometer obtained from Sunnyvale, Calif. that interfaced to a Power PC Macintosh using the CellQuest software package. The FACScan is equipped with a 15 mW air-cooled argon ion laser. The laser output is fixed at 488 nm. It has been shown that the mean of the histogram is the quantity relevant to binding capacity. The average fluorescence of a single bead is converted to the number of fluorophores per bead on the basis of flow cytometric calibration beads obtained from Quantum 825 Flow Cytometry Standards Corporation, San Juan, PR. […] [formula]
MCFLb mean channel fluorescence are the means of the histograms of the bound ligand Lb, corrected for nonspecific binding and standard calibration beads referred to as std, observed at similar detection settings. MESF stands for mean equivalent of soluble fluorophores and is the number of fluorescein molecules whose emission intensity is equal to MCFstd on each bead.
The magnitude of bound sites per bead were determined from centrifugation assays.

Assay [13] has as its target streptavidin (Streptomyces avidinii, UniProt P22629). Briefly: Ostrich quenching of fluorescein biotin bound to streptavidin. In kind it is binding. As to conditions: bound to excess soluble streptavidin.
Excerpt: Under certain circumstances, binding of fluorescent ligands to streptavidin is characterized by the quenching of fluorescence of bound relative to free ligands. Typically, this type of quenching referred to as “ostrich quenching” occurs when the fluorophore (e.g., fluorescein) moiety of a biotinylated ligand associates with the receptor pocket adjacent to the biotin-moiety bearing site. Such a method is described in the following reference: Buranda, T., Jones, G., Nolan, J., Keij, J., Lopez, G. P., and Sklar, L. A. (1999) Ligand Receptor Dynamics at Streptavidin Coated Particle Surfaces: A Flow Cytometric and Spectrofluorimetic Study J. Phys. Chem. B. 103, 3399-3410, the entire contents and disclosure of which is hereby incorporated by reference.
as §1

One may read the pKd as the Kd on a negative log10 scale, so that one unit is a factor of ten. Usually koff stands for the rate constant with which the complex falls apart. A high value points to a short-lived complex. By kon is commonly meant the second-order rate constant of association.

pKd: −log10 of the molar value. Several values for one entry are separate records, joined by “and”; a condition that tells them apart may be missing. Equal entries are not always repeated. Where only a bound is given, the exact number is not on record here.

Chain of streptavidin (P22629 25-183): as above
Chain of streptavidin on 6.2 µm streptavidin-coated beads (P22629 37-163 limits assumed): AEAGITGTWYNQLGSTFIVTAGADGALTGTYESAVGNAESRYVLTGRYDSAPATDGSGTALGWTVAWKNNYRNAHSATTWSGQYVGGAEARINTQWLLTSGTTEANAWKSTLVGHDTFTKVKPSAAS

Turning to “biotinylated and fluorescein-tagged 5-FLAG peptide on streptavidin-coated beads”, in assay [1], the pKd was 9.52.
For “dark non-fluorescent FLAG peptide (soluble)”, the FRET signal remaining with thousand fold excess of soluble peptide in assay [2] was less than 10%.
Consider `O=C(O)CCCC[C@@H]1SC[C@@H]2NC(=O)N[C@@H]21` [native biotin, biotin], for which the “increase in intensity of fluorescein biotin-bearing beads” value in [3] is “fivefold”.
As for “biotinylated anti-FLAG M2 IgG on streptavidin-coated beads (antibody)”, in assay [4], the pKd was 8.10.
With “Texas-Red labeled M1 anti-FLAG monoclonal antibody (IgG)”, the pKd is 8.40 in [5]; 8.40 in assay [7]; 8.05 in assay [8]; 8.00 in assay [9]; 7.43 in [10]; 7.88 in [11]. Further, the quenching of peptide fluorescence at saturation in assay [6] is more than 60%. Further, the koff in [11] worked out at 0.0012 s⁻¹. In assay [11], this compound returned a kon of 90000 M⁻¹ s⁻¹.
For “Biotinylated and fluorescein-tagged FLAG peptide (epitope DYKDDDDK) tethered to streptavidin-coated beads [5-FLAG]”, in [12], the pKd is 9.52 and ~9.52.
For `O=C(CCCCCNC(=O)CCCC[C@@H]1SC[C@@H]2NC(=O)N[C@@H]21)NCCCCCNC(=S)Nc1ccc2c(c1)C(=O)OC21c2ccc(O)cc2Oc2cc(O)ccc21` [fluorescein biotin], the pKd in assay [12] was approximately 9.30. Further, the “quenching of the fluorescence” value in [13] is on record as more than 90%.
